In patent US20220016257A1 (Daiichi Sankyo, published 2022):
Where a chain is given by its changes, count along the chain named. Each block holds one binder with its values, some of them ahead of it.

Legend:
[1] = target: T1, Recombinant Human CDH6 Fc His chimera (R&D Systems, Inc.) (human, UniProt P55285 54-615); experiment: SPR (Biacore T200), antigen captured by immobilized anti-His antibody, antibody as analyte, steady state affinity model
T1 construct: Bought reagent; Captured on the chip by an anti-His antibody; also called the antigen; not shown: Fc portion of the bought chimera; His tag of the bought chimera
T1 sequence: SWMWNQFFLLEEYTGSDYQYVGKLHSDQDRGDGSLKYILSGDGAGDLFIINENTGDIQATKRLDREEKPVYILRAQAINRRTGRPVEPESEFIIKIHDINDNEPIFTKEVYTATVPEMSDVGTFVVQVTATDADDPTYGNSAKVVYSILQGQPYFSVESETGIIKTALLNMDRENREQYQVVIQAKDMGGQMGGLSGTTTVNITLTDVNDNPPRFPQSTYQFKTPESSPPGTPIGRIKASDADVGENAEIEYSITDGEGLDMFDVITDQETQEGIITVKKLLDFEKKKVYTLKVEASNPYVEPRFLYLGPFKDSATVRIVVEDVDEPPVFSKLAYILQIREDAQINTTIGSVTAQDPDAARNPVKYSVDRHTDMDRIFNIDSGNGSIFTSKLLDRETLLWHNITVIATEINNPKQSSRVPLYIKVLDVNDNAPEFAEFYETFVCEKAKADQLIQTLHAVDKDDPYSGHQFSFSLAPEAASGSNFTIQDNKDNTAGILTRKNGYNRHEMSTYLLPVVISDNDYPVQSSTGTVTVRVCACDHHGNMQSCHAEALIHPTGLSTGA
Experimental: The dissociation constant between the antibody and the antigen (Recombinant Human CDH6 Fc His chimera, R&D Systems, Inc.) was measured by using Biacore T200 (GE Healthcare Biosciences Corp.), according to a capture method, which comprises capturing the antigen as a ligand with the immobilized anti-His antibody and then measuring the dissociation constant using an antibody as an analyte. Approximately 1000 RU of the anti-histidine antibody (His capture kit, GE Healthcare Biosciences Corp.) was covalently bound to sensor chip CM5 (GE Healthcare Biosciences Corp.) by the amine coupling method. The antibody was also immobilized onto reference cells in the same manner as above. HBS-P+(10 mM HEPES pH 7.4, 0.15 M NaCl, 0.05% Surfactant P20) supplemented with 1 mM CaCl₂ was used as a running buffer. The antigen was added onto the anti-histidine antibody-immobilized chip for 60 seconds, and a dilution series solution (0.391 to 100 nM) of the antibody was then added at a flow rate of 30 μl/min for 300 seconds. Subsequently, the dissociation phase was monitored for 600 seconds. As a regeneration solution, a glycine solution (pH 1.5) supplemented with 5 M MgCl₂ was added twice at a flow rate of 10 μl/min for 30 seconds. A Steady State Affinity model in analysis software (BIAevaluation software, version 4.1) was used in data analysis, and the dissociation constant (KD) was calculated.

[2] = target: T2, EC3-deleted human CDH6 (EC3 deletion mutant, on cells) (human, UniProt P55285 54-790); experiment: flow cytometry, 293α cells transiently expressing EC3-deleted hCDH6 (open) against untransfected cells (shaded), anti-rat IgG-FITC [4]
T2 construct: Full-length human CDH6 lacking EC3; Cloned in p3xFLAG-CMV-9; also called EC3-deleted hCDH6
T2 sequence: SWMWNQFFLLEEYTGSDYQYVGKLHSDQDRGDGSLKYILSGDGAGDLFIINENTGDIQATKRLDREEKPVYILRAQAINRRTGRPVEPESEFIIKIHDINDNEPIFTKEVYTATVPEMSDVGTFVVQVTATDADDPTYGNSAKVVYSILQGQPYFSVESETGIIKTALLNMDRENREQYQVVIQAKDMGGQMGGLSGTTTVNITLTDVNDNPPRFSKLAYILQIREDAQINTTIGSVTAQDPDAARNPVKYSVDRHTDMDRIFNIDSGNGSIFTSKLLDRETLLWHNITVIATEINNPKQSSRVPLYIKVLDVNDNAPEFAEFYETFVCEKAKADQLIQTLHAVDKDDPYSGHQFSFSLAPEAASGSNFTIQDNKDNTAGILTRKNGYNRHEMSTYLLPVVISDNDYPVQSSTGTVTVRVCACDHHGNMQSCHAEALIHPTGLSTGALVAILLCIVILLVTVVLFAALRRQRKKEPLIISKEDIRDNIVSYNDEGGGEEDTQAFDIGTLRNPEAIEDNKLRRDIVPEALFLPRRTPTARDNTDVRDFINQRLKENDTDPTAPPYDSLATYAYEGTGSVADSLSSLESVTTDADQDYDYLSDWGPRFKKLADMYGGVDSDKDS
Experimental: The cells were cultured overnight under conditions of 37° C. and 5% CO₂, treated with TrypLE Express (Thermo Fisher Scientific Inc.), and thereafter, a cell suspension was prepared. […] Thereafter, the cells were suspended by the addition of the anti-CDH6 monoclonal antibody (clone No: rG019), which had been prepared in Example 1)-7, or rat IgG control (R&D Systems, Inc.) (final concentration: 20 nM). The cells were left standing at 4° C. for 1 hour. The cells were washed twice with PBS supplemented with 5% FBS, and then suspended by the addition of Anti-Rat IgG (whole molecule)-FITC antibody produced in rabbit (Sigma-Aldrich Co. LLC) that had been 50-fold diluted with PBS supplemented with 5% FBS. The cells were left standing at 4° C. for 1 hour. The cells were washed twice with PBS supplemented with 5% FBS, followed by detection using a flow cytometer (Canto II; BD Biosciences). The data was analyzed using FlowJo (TreeStar, Inc.). In the histograms of FIGS. 2-1 to 2-2, the abscissa depicts FITC fluorescence intensity indicating the amount of the antibody bound, and the ordinate depicts cell count. […] Fluorescence intensity is enhanced when the antibody binds to full-length hCDH6 or each EC domain deletion mutant on the surface of cells.

Kd [1]: 1.1 nM
B1: humanized anti-CDH6 antibody H02L02 (antibody, human IgG1, kappa, V domains shown)
VH: EVQLVQSGAEVKKPGASVKVSCKASGYTFTRNFMHWVRQAPGQGLEWMGWIYPGDGETEYNQKFQGRVTITADRSTSTAYMELSSLRSEDTAVYFCARGVYGGFAGGYFDFWGQGTLVTVSS
VL: DIQMTQSPSSLSASVGDRVTITCKASQNIYKNLAWYQQKPGKAPKLLIYDANTLQTGVPSRFSGSGSGSDFTLTISSLQPEDFATYFCQQYYSGWAFGQGTKVEIKR
notes: hH02 heavy chain and hL02 light chain, human IgG1/kappa; also called H02L02 antibody; humanized hG019

Kd [1]: 1.1 nM
B2: humanized anti-CDH6 antibody H04L02 (antibody, human IgG1, kappa, V domains shown)
VH: B1 VH with E1Q, V37I, N61A, I70L, F95Y
VL: B1 VL
notes: hH04 heavy chain and hL02 light chain, human IgG1/kappa; also called H04L02 antibody; humanized hG019

Kd [1]: 1.5 nM
B3: humanized anti-CDH6 antibody H01L02 (antibody, human IgG1, kappa)
heavy: not shown
light: DIQMTQSPSSLSASVGDRVTITCKASQNIYKNLAWYQQKPGKAPKLLIYDANTLQTGVPSRFSGSGSGSDFTLTISSLQPEDFATYFCQQYYSGWAFGQGTKVEIKRTVAAPSVFIFPPSDEQLKSGTASVVCLLNNFYPREAKVQWKVDNALQSGNSQESVTEQDSKDSTYSLSSTLTLSKADYEKHKVYACEVTHQGLSSPVTKSFNRGEC
notes: hH01 heavy chain and hL02 light chain, human IgG1/kappa; also called H01L02 antibody; humanized hG019

Kd [1]: 1.4 nM
B4: humanized anti-CDH6 antibody H02L03 (antibody, human IgG1, kappa, V domains shown)
VH: B1 VH
VL: B1 VL with P40L, K42E, A43G, S69T, F87Y
notes: hH02 heavy chain and hL03 light chain, human IgG1/kappa; also called H02L03 antibody; humanized hG019

binding result [2]: no binding (tested: 20 nM)
B5: rat anti-CDH6 monoclonal antibody rG019 (antibody, IgG2b, V domains shown)
VH: QVQLQQSGAELVKPGSSVKISCKASGYTFTRNFMHWIKQQPGNGLEWIGWIYCGDGETEYNQKFNGKATLTADRSSSTAYMELSRLTSEDSAVYFCARGVYGGFAGGYFDFWGQGVMVTVSS
VL: DIQMTQSPSLLSASVGDRVTLNCKASQNIYKNLAWYQQKLGEGPKLLIYDANTLQTGIPSRFSGSGSGSDFTLTISSLQPEDVATYFCQQYYSGWAFGGVTNLELKRA
notes: Rat antibody purified from hybridoma supernatant; also called rG019 antibody; clone rG019
